Experimental data from paper PMC12501149 (2025).
Where no end group is shown, it is not given here.

Tests used:
[1] = molecular target: Clostridioides difficile toxin B (TcdB), full-length TcdB1 (VP10463) (Clostridioides difficile, UniProt P18177 1-2366); assay: SPR
[2] = molecular target: TcdB 1285-1804 with C-terminal Avitag (RBD toxin fragment), biotinylated (Clostridioides difficile, UniProt P18177 1285-1804); assay: SPR
Sequence of TcdB 1285-1804 with C-terminal Avitag (RBD toxin fragment), biotinylated (P18177 1285-1804): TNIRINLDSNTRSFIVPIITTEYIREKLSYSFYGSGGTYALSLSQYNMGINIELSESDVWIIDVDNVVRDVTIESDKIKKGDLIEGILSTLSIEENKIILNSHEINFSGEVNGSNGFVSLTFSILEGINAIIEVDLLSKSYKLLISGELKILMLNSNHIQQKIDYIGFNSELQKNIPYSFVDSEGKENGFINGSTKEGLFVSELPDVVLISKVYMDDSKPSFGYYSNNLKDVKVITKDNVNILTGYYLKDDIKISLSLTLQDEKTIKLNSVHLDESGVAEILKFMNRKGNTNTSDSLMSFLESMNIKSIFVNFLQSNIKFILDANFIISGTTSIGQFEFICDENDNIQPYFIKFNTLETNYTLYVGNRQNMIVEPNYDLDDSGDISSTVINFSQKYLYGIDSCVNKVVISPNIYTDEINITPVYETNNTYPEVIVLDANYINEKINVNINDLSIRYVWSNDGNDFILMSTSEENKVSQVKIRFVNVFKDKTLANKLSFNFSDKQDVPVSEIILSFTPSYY

Sequence of Clostridioides difficile toxin B (TcdB), full-length TcdB1 (VP10463) (P18177 whole entry, the tested form may be a part): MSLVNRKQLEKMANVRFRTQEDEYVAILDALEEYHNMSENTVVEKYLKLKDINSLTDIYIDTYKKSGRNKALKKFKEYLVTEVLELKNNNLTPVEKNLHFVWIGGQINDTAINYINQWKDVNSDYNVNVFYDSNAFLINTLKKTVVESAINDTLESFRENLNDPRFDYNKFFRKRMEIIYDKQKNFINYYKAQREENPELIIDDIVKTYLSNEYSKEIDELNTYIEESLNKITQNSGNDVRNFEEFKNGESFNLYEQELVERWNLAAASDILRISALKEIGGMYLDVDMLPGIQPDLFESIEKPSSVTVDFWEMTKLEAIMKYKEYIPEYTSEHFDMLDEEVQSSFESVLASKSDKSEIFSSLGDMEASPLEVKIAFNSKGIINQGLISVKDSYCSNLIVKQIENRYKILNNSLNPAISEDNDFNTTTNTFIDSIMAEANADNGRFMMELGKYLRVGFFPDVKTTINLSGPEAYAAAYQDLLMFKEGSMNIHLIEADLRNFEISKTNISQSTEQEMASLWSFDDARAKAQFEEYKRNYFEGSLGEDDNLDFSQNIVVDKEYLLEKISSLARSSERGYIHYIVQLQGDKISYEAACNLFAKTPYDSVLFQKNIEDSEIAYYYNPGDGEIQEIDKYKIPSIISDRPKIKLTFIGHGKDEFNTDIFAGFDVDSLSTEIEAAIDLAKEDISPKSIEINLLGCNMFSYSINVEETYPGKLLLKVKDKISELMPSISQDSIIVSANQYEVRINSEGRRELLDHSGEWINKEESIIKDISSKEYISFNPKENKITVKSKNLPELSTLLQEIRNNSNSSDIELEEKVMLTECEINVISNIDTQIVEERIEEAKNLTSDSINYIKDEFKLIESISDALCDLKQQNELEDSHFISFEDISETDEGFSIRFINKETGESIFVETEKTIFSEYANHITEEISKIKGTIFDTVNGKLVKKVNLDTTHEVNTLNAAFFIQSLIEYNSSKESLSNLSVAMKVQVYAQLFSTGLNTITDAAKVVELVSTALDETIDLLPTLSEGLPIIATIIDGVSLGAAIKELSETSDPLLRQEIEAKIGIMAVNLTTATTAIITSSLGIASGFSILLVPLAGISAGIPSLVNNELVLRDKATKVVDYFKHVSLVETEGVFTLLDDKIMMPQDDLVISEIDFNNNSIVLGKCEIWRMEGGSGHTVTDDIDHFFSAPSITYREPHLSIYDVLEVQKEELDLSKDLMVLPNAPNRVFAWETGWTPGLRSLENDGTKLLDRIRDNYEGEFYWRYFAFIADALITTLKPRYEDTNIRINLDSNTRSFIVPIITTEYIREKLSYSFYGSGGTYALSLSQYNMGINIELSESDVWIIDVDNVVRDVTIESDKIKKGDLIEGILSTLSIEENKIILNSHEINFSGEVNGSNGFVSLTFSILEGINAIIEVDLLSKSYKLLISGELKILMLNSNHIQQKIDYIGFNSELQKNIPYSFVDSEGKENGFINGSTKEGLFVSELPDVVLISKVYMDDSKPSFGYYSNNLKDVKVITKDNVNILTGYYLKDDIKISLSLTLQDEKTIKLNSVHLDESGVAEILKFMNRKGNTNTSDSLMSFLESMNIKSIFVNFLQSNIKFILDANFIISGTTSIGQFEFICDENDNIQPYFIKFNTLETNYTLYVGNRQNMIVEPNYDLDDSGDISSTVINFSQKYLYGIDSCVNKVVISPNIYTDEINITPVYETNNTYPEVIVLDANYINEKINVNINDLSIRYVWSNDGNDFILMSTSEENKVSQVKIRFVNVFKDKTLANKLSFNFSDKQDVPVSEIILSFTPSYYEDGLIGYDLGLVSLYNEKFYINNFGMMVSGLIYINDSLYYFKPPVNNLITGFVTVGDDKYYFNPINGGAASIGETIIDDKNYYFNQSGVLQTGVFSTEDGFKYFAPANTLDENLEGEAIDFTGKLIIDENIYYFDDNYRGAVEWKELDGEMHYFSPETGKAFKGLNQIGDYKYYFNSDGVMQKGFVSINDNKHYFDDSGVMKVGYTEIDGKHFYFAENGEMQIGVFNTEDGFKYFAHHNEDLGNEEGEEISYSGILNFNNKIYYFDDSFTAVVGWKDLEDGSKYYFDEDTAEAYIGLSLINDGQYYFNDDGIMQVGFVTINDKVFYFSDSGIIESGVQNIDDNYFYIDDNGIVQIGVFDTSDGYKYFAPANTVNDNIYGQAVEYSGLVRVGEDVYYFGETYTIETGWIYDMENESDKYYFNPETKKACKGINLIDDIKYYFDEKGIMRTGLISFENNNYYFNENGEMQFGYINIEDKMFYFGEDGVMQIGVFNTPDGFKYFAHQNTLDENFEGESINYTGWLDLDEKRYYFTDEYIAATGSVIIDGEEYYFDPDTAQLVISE

B1: ss2cspg18 (designed binder)
chain: MDEKVEKLKECLEKLKEKGDIKGVIDTERAIRICERSRHKEFCEWAIEKCENRIKES
modifications: disulfide (positions not given here)
- Kd [1]: 870 pM

B2: fzd13 (designed binder)
chain: AEKEVQELIDKALNTPDPKVASKYIISAVYVAAKARDPSLFQSALDTAKKL
- Kd [2]: 5.6 pM

B3: fzd48 (designed binder)
chain: KEELEKMIEELKKLIENGDKENFIKLFDEAFKKAKESRDPRTIASVWTLVLEFKNKN
- Kd [2]: < 10 pM

B4: cspg4 (designed minibinder) (designed binder)
chain: ENKLARAVVTVNKSWLATQLFVRLYRLCKAGDPRCEEVAEKLRKVLELQGVPETDIELVVEVAKG
- Kd [1]: 2000 pM
